The record followed here is patent US20250171512A1.

Residue numbers refer to the chain shown, from its start. Names and notes keep the numbering of the source.

The test has as its target human FGFR1c together with human beta-Klotho (KLB), stably expressed on CHO Flp-In cells (human), P11362. Nature of the test: cell-based or functional assay.

human FGFR1c together with human beta-Klotho (KLB), stably expressed on CHO Flp-In cells (human), P11362, sequence (P11362 22-822, chain 1 of 2): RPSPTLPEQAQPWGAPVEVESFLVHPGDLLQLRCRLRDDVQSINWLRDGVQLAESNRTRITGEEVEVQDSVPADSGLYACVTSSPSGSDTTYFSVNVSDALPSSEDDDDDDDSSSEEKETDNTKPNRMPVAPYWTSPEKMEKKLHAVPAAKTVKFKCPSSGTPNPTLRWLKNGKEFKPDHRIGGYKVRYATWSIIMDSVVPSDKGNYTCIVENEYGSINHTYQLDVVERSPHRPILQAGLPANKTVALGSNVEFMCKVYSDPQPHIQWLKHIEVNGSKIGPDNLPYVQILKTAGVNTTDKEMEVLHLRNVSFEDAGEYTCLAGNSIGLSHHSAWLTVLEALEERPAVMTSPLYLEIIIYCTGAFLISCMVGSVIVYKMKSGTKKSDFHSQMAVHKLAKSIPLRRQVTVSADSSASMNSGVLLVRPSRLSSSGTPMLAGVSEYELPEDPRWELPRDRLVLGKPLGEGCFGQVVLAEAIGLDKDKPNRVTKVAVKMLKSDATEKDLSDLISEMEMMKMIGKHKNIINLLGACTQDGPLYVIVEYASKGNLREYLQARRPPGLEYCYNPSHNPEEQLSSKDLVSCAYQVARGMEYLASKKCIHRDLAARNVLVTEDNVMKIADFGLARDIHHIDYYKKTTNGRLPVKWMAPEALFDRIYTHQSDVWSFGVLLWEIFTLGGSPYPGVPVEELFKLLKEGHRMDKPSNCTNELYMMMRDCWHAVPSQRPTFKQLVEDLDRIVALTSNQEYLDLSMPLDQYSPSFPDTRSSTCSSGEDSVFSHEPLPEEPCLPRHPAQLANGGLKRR
human FGFR1c together with human beta-Klotho (KLB), stably expressed on CHO Flp-In cells (human), P11362, sequence (Q86Z14 whole entry, chain 2 of 2, further chain): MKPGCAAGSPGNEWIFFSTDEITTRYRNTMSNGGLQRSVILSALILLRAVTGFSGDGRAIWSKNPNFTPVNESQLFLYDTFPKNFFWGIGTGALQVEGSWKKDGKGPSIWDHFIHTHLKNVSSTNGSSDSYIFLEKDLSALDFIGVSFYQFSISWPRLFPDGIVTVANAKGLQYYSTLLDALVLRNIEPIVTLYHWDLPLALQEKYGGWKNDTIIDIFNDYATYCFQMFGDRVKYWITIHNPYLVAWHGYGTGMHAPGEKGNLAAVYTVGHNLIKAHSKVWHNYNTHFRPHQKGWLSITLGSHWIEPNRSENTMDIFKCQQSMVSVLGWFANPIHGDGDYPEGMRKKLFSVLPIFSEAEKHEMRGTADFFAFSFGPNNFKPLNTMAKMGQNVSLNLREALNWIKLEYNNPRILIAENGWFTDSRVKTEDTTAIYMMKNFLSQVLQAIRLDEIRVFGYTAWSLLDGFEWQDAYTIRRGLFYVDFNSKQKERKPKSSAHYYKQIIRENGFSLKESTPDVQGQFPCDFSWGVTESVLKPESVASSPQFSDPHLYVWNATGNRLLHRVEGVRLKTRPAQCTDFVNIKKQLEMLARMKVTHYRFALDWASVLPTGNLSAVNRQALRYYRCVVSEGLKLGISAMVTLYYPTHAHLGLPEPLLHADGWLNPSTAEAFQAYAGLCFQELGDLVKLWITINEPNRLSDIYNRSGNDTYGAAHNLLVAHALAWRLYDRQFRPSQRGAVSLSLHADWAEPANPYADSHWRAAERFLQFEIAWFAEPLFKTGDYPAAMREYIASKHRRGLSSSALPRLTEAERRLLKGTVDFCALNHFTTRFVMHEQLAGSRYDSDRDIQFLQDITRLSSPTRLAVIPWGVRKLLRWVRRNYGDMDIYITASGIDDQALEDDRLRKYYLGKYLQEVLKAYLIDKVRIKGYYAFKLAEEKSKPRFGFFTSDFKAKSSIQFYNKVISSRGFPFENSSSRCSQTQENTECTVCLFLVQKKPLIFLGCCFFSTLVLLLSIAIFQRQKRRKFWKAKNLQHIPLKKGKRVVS

B1: FGF21 G202-R203 deleted (SEQ ID NO: 157), Q9NSA1 29-209 (ligand)
chain: GHPIPDSSPLLQFGGQVRQRYLYTDDAQQTEAHLEIREDGTVGGAADQSPESLLQLKALKPGVIQILGVKTSRFLCQRPDGALYGSLHFDPEACSFRELLLEDGYNVYQSEAHGLPLHLPGNKSPHRDPAPRGPARFLPLPGLPPAPPEPPGILAPQPPDVGSSDPLSMVGPSQSPSYAS
B1 gave a pERK ICW EC50 of 1.63 nmol/L.

B2: FGF21, human (SEQ ID NO: 2), without N-terminal tag, Q9NSA1 29-209 (ligand)
chain: HPIPDSSPLLQFGGQVRQRYLYTDDAQQTEAHLEIREDGTVGGAADQSPESLLQLKALKPGVIQILGVKTSRFLCQRPDGALYGSLHFDPEACSFRELLLEDGYNVYQSEAHGLPLHLPGNKSPHRDPAPRGPARFLPLPGLPPAPPEPPGILAPQPPDVGSSDPLSMVGPSQGRSPSYAS
For the molecule B2, the pERK ICW EC50 amounted to 0.17 nmol/L, the pFGFR ICW EC50 was determined as 4.49 nmol/L and the pFGFR ICW Emax was determined as 146%.

B3: FGF21 N149-D155 deleted and replaced by GSGS (SEQ ID NO: 143), Q9NSA1 29-209 (ligand)
chain: GHPIPDSSPLLQFGGQVRQRYLYTDDAQQTEAHLEIREDGTVGGAADQSPESLLQLKALKPGVIQILGVKTSRFLCQRPDGALYGSLHFDPEACSFRELLLEDGYNVYQSEAHGLPLHLPGGSGSPAPRGPARFLPLPGLPPAPPEPPGILAPQPPDVGSSDPLSMVGPSQGRSPSYAS
B3 returned a pERK ICW EC50 of 0.28 nmol/L.

B4: FGF21 N149-D155 deleted and replaced by ATTS (SEQ ID NO: 145), Q9NSA1 29-209 (ligand)
chain: B3 chain with G122A, S123T, G124T
B4 gave a pERK ICW EC50 of 0.02 nmol/L.

B5: FGF21 A162Y (SEQ ID NO: 151), Q9NSA1 29-209 (ligand)
chain: GHPIPDSSPLLQFGGQVRQRYLYTDDAQQTEAHLEIREDGTVGGAADQSPESLLQLKALKPGVIQILGVKTSRFLCQRPDGALYGSLHFDPEACSFRELLLEDGYNVYQSEAHGLPLHLPGNKSPHRDPAPRGPYRFLPLPGLPPAPPEPPGILAPQPPDVGSSDPLSMVGPSQGRSPSYAS
In the case of B5, the pERK ICW EC50 amounted to 0.08 nmol/L.

B6: FGF21 H153Y, R154K, D155N, P156K, A157G (SEQ ID NO: 134), Q9NSA1 29-209 (ligand)
chain: B5 chain with H126Y, R127K, D128N, P129K, A130G, Y135A
B6: the pERK ICW EC50 came out at 0.05 nmol/L.

B7: FGF21 R159H (SEQ ID NO: 152), Q9NSA1 29-209 (ligand)
chain: B5 chain with R132H, Y135A
Molecule B7 had a pERK ICW EC50 of 0.17 nmol/L.

B8: FGF21 K150H, P152L (SEQ ID NO: 140), Q9NSA1 29-209 (ligand)
chain: B5 chain with K123H, P125L, Y135A
In the case of B8, the pERK ICW EC50 is 0.13 nmol/L.

B9: FGF21 G202T (SEQ ID NO: 154), Q9NSA1 29-209 (ligand)
chain: B5 chain with Y135A, G175T
Turning to B9, the pERK ICW EC50 amounted to 0.01 nmol/L.

B10: G-FGF21 with a leucine in position 174 (SEQ ID NO: 174), Q9NSA1 29-209 (ligand)
chain: B5 chain with Y135A, P147L
Molecule B10 registered an In-Cell Western EC50 of 0.21 nM.

B11: FGF21 D155N (SEQ ID NO: 129), Q9NSA1 29-209 (ligand)
chain: B5 chain with D128N, Y135A
Take B11: the pERK ICW EC50 turned out to be 0.06 nmol/L.

B12: FGF21 H153Q, R154Q, D155N, A157V, R159K (SEQ ID NO: 132), Q9NSA1 29-209 (ligand)
chain: B5 chain with H126Q, R127Q, D128N, A130V, R132K, Y135A
Take B12: the pERK ICW EC50 is 0.23 nmol/L.

B13: FGF21 R154Q, D155K (SEQ ID NO: 131), Q9NSA1 29-209 (ligand)
chain: B5 chain with R127Q, D128K, Y135A
As for B13, the pERK ICW EC50 was determined as 0.39 nmol/L.

B14: FGF21 R163H (SEQ ID NO: 141), Q9NSA1 29-209 (ligand)
chain: B5 chain with Y135A, R136H
The molecule B14 registered a pERK ICW EC50 of 0.39 nmol/L.

B15: FGF21 K150H (SEQ ID NO: 139), Q9NSA1 29-209 (ligand)
chain: B5 chain with K123H, Y135A
In turn, B15 showed a pERK ICW EC50 of 0.15 nmol/L.

B16: FGF21 D155L (SEQ ID NO: 124), Q9NSA1 29-209 (ligand)
chain: B5 chain with D128L, Y135A
As to B16, the pERK ICW EC50 turned out to be 0.11 nmol/L.

B17: FGF21 D155E (SEQ ID NO: 128), Q9NSA1 29-209 (ligand)
chain: B5 chain with D128E, Y135A
B17 displayed a pERK ICW EC50 of 0.13 nmol/L.

B18: FGF21 P152A, H153K, R154K, D155E, P156A, A157S, R159Q (SEQ ID NO: 133), Q9NSA1 29-209 (ligand)
chain: B5 chain with P125A, H126K, R127K, D128E, P129A, A130S, R132Q, Y135A
B18 had a pERK ICW EC50 of 0.24 nmol/L.

B19: FGF21 D155K (SEQ ID NO: 125), Q9NSA1 29-209 (ligand)
chain: B5 chain with D128K, Y135A
B19: the pERK ICW EC50 came out at 0.06 nmol/L.

B20: G-FGF21 (SEQ ID NO: 3), without N-terminal tag, Q9NSA1 29-209 (ligand)
chain: B5 chain with Y135A
B20 yielded a pERK ICW EC50 of 0.24 nmol/L.

B21: FGF21 P158H, R159H (SEQ ID NO: 142), Q9NSA1 29-209 (ligand)
chain: B5 chain with P131H, R132H, Y135A
Take B21: the pERK ICW EC50 is 0.84 nmol/L.

B22: FGF21 R154Q, D155L (SEQ ID NO: 130), Q9NSA1 29-209 (ligand)
chain: B5 chain with R127Q, D128L, Y135A
For the molecule B22, the pERK ICW EC50 worked out at 0.14 nmol/L.

B23: FGF21 S200M (SEQ ID NO: 153), Q9NSA1 29-209 (ligand)
chain: B5 chain with Y135A, S173M
On to B23, for which the pERK ICW EC50 turned out to be 0.17 nmol/L.

B24: FGF21 D155P (SEQ ID NO: 127), Q9NSA1 29-209 (ligand)
chain: B5 chain with D128P, Y135A
With B24, the pERK ICW EC50 came out at 0.08 nmol/L.

B25: FGF21 D155Y (SEQ ID NO: 126), Q9NSA1 29-209 (ligand)
chain: B5 chain with D128Y, Y135A
Molecule B25 returned a pERK ICW EC50 of 0.07 nmol/L.

B26: FGF21 R159-R163 deleted and replaced by HE (SEQ ID NO: 150), Q9NSA1 29-209 (ligand)
chain: GHPIPDSSPLLQFGGQVRQRYLYTDDAQQTEAHLEIREDGTVGGAADQSPESLLQLKALKPGVIQILGVKTSRFLCQRPDGALYGSLHFDPEACSFRELLLEDGYNVYQSEAHGLPLHLPGNKSPHRDPAPHEFLPLPGLPPAPPEPPGILAPQPPDVGSSDPLSMVGPSQGRSPSYAS
Molecule B26 had a pERK ICW EC50 of 0.98 nmol/L.

B27: FGF21 P152-H153 deleted (SEQ ID NO: 135), Q9NSA1 29-209 (ligand)
chain: GHPIPDSSPLLQFGGQVRQRYLYTDDAQQTEAHLEIREDGTVGGAADQSPESLLQLKALKPGVIQILGVKTSRFLCQRPDGALYGSLHFDPEACSFRELLLEDGYNVYQSEAHGLPLHLPGNKSRDPAPRGPARFLPLPGLPPAPPEPPGILAPQPPDVGSSDPLSMVGPSQGRSPSYAS
For B27, the pERK ICW EC50 was 0.21 nmol/L.

B28: FGF21 N149-D155 deleted and replaced by GSHSG (SEQ ID NO: 144), Q9NSA1 29-209 (ligand)
chain: B27 chain with N122G, K123S, S124H, R125S, D126G
B28 registered a pERK ICW EC50 of 0.1 nmol/L.

B29: FGF21 N149-A162 deleted and replaced by GSHSG (SEQ ID NO: 137), Q9NSA1 29-209 (ligand)
chain: GHPIPDSSPLLQFGGQVRQRYLYTDDAQQTEAHLEIREDGTVGGAADQSPESLLQLKALKPGVIQILGVKTSRFLCQRPDGALYGSLHFDPEACSFRELLLEDGYNVYQSEAHGLPLHLPGGSHSGRFLPLPGLPPAPPEPPGILAPQPPDVGSSDPLSMVGPSQGRSPSYAS
In the case of B29, the pERK ICW EC50 came to 0.57 nmol/L.

B30: FGF21 N149-A162 deleted and replaced by GSHSGS (SEQ ID NO: 138), Q9NSA1 29-209 (ligand)
chain: GHPIPDSSPLLQFGGQVRQRYLYTDDAQQTEAHLEIREDGTVGGAADQSPESLLQLKALKPGVIQILGVKTSRFLCQRPDGALYGSLHFDPEACSFRELLLEDGYNVYQSEAHGLPLHLPGGSHSGSRFLPLPGLPPAPPEPPGILAPQPPDVGSSDPLSMVGPSQGRSPSYAS
In the case of B30, the pERK ICW EC50 is 0.19 nmol/L.

B31: FGF21 N149-R163 deleted and replaced by GSGS (SEQ ID NO: 136), Q9NSA1 29-209 (ligand)
chain: GHPIPDSSPLLQFGGQVRQRYLYTDDAQQTEAHLEIREDGTVGGAADQSPESLLQLKALKPGVIQILGVKTSRFLCQRPDGALYGSLHFDPEACSFRELLLEDGYNVYQSEAHGLPLHLPGGSGSFLPLPGLPPAPPEPPGILAPQPPDVGSSDPLSMVGPSQGRSPSYAS
In turn, B31 gave a pERK ICW EC50 of 3.69 nmol/L.
